T1: human NMI (N-myc Interacting protein), recombinant protein (human, UniProt Q13287 1-307, limits assumed)
T1 construct: Gene ID: 9111; also called hNMI; antigen
T1 sequence (looked up): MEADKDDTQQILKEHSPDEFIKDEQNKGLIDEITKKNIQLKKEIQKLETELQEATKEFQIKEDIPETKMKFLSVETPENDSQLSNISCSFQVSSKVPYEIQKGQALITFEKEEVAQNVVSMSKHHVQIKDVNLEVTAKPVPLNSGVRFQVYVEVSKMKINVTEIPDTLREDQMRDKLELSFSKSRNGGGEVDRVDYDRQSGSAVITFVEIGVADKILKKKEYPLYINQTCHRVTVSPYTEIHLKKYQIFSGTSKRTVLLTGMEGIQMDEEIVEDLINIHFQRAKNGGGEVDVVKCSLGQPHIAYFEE


Assays:
[1] = biological target: T1, human NMI (N-myc Interacting protein), …; experiment: ELISA EC50 against parent 98G10
[2] = biological target: T1, human NMI (N-myc Interacting protein), …; experiment: ELISA, binding to hNMI
[3] = biological target: T1, human NMI (N-myc Interacting protein), …; experiment: ELISA EC50 against parent 98G10; remark: listed apart in the source
[4] = biological target: T1, human NMI (N-myc Interacting protein), …; experiment: ELISA EC50 against parent 94C4

Binder | EC50 [2] | Fold decrease in affinity [3] | Fold decrease in affinity [4] | other results
98G10 mutant G55H (VH) (antibody, V domains shown) VH: QEQLEESGGDLVKPEGSLTLTCTASGFSFSASYWICWVRQAPGKGLEWIACIYGHSSGSAYYASWAKGRFTISKTSSTTVTLQMTSLTAADTATYFCARAGYYNYGSAGDIYPSSFKLWGPGTLVTVSS VL: DIVMTQTPASVEAAVGGTVTINCQASQSISTALAWYQQKPGQPPKLLIYTASKVASGVPSRFSGSGSGTQFTLTISDLECADAATYYCQNYYYSSSSITFGGGTEVVVK | – | – | – | Fold decrease in affinity [1]: > 100 fold
98G10 mutant G55W (VH) (antibody, V domains shown) VH: QEQLEESGGDLVKPEGSLTLTCTASGFSFSASYWICWVRQAPGKGLEWIACIYGWSSGSAYYASWAKGRFTISKTSSTTVTLQMTSLTAADTATYFCARAGYYNYGSAGDIYPSSFKLWGPGTLVTVSS VL: DIVMTQTPASVEAAVGGTVTINCQASQSISTALAWYQQKPGQPPKLLIYTASKVASGVPSRFSGSGSGTQFTLTISDLECADAATYYCQNYYYSSSSITFGGGTEVVVK | – | – | – | Fold decrease in affinity [1]: > 100 fold
98G10 mutant G58V (VH) (antibody, V domains shown) VH: QEQLEESGGDLVKPEGSLTLTCTASGFSFSASYWICWVRQAPGKGLEWIACIYGGSSVSAYYASWAKGRFTISKTSSTTVTLQMTSLTAADTATYFCARAGYYNYGSAGDIYPSSFKLWGPGTLVTVSS VL: DIVMTQTPASVEAAVGGTVTINCQASQSISTALAWYQQKPGQPPKLLIYTASKVASGVPSRFSGSGSGTQFTLTISDLECADAATYYCQNYYYSSSSITFGGGTEVVVK | – | – | – | Fold decrease in affinity [1]: > 100 fold
98G10-6 (antibody, V domains shown, also called 98G10 T81Y (VH), T18R/C80P (VL)) VH: QEQLEESGGDLVKPEGSLTLTCTASGFSFSASYWICWVRQAPGKGLEWIACIYGGSSGSAYYASWAKGRFTISKTSSTTVYLQMTSLTAADTATYFCARAGYYNYGSAGDIYPSSFKLWGPGTLVTVSS VL: DIVMTQTPASVEAAVGGRVTINCQASQSISTALAWYQQKPGQPPKLLIYTASKVASGVPSRFSGSGSGTQFTLTISDLEPADAATYYCQNYYYSSSSITFGGGTEVVVK | 0.168 nM | 1.02 fold | – | –
98G10-7 (antibody, V domains shown, also called 98G10 T23K/T81Y (VH), T18R/C80P (VL)) VH: QEQLEESGGDLVKPEGSLTLTCKASGFSFSASYWICWVRQAPGKGLEWIACIYGGSSGSAYYASWAKGRFTISKTSSTTVYLQMTSLTAADTATYFCARAGYYNYGSAGDIYPSSFKLWGPGTLVTVSS VL: DIVMTQTPASVEAAVGGRVTINCQASQSISTALAWYQQKPGQPPKLLIYTASKVASGVPSRFSGSGSGTQFTLTISDLEPADAATYYCQNYYYSSSSITFGGGTEVVVK | 0.133 nM | 0.81 fold | – | –
98G10-8 (antibody, V domains shown, also called 98G10 T23K/T75D/T81Y (VH), T18R/C80P (VL)) VH: QEQLEESGGDLVKPEGSLTLTCKASGFSFSASYWICWVRQAPGKGLEWIACIYGGSSGSAYYASWAKGRFTISKDSSTTVYLQMTSLTAADTATYFCARAGYYNYGSAGDIYPSSFKLWGPGTLVTVSS VL: DIVMTQTPASVEAAVGGRVTINCQASQSISTALAWYQQKPGQPPKLLIYTASKVASGVPSRFSGSGSGTQFTLTISDLEPADAATYYCQNYYYSSSSITFGGGTEVVVK | 0.106 nM | 0.64 fold | – | –
98G10-9 (antibody, V domains shown, also called 98G10 T23K/T81Y (VH), T18R/Q70D/C80P (VL)) VH: QEQLEESGGDLVKPEGSLTLTCKASGFSFSASYWICWVRQAPGKGLEWIACIYGGSSGSAYYASWAKGRFTISKTSSTTVYLQMTSLTAADTATYFCARAGYYNYGSAGDIYPSSFKLWGPGTLVTVSS VL: DIVMTQTPASVEAAVGGRVTINCQASQSISTALAWYQQKPGQPPKLLIYTASKVASGVPSRFSGSGSGTDFTLTISDLEPADAATYYCQNYYYSSSSITFGGGTEVVVK | 0.119 nM | 0.72 fold | – | –
98G10-10 (antibody, V domains shown, also called 98G10 T23K/T75D/T81Y (VH), T18R/Q70D/C80P (VL)) VH: QEQLEESGGDLVKPEGSLTLTCKASGFSFSASYWICWVRQAPGKGLEWIACIYGGSSGSAYYASWAKGRFTISKDSSTTVYLQMTSLTAADTATYFCARAGYYNYGSAGDIYPSSFKLWGPGTLVTVSS VL: DIVMTQTPASVEAAVGGRVTINCQASQSISTALAWYQQKPGQPPKLLIYTASKVASGVPSRFSGSGSGTDFTLTISDLEPADAATYYCQNYYYSSSSITFGGGTEVVVK | 0.168 nM | 1.02 fold | – | –
98G10-11 (antibody, V domains shown, also called 98G10 Q70D (VL)) VH: QEQLEESGGDLVKPEGSLTLTCTASGFSFSASYWICWVRQAPGKGLEWIACIYGGSSGSAYYASWAKGRFTISKTSSTTVTLQMTSLTAADTATYFCARAGYYNYGSAGDIYPSSFKLWGPGTLVTVSS VL: DIVMTQTPASVEAAVGGTVTINCQASQSISTALAWYQQKPGQPPKLLIYTASKVASGVPSRFSGSGSGTDFTLTISDLECADAATYYCQNYYYSSSSITFGGGTEVVVK | 0.0659 nM | 0.4 fold | – | –
98G10-12 (antibody, V domains shown, also called 98G10 T75D (VH)) VH: QEQLEESGGDLVKPEGSLTLTCTASGFSFSASYWICWVRQAPGKGLEWIACIYGGSSGSAYYASWAKGRFTISKDSSTTVTLQMTSLTAADTATYFCARAGYYNYGSAGDIYPSSFKLWGPGTLVTVSS VL: DIVMTQTPASVEAAVGGTVTINCQASQSISTALAWYQQKPGQPPKLLIYTASKVASGVPSRFSGSGSGTQFTLTISDLECADAATYYCQNYYYSSSSITFGGGTEVVVK | 0.0746 nM | 0.45 fold | – | –
94C4 mutant A32K (VH) (antibody, V domains shown) VH: QSLEESGGGLVQPEGSLTLTCKASGFDFSSNKMCWVRQAPGKGLEWIACISSASSGSSGSTYYASWAKGRFTISKTSSTTVTLQMTSLTAADMATYFCARDGYDLWGPGTLVTVSS VL: QVLTQTPSSVSAAVGGTVTISCQSSPSVYNNYLSWFQQKPGQSPKLLIYRVSTLASGVPSRFSGSGSGTQFTLTISGVQCDDAATYYCAGGYDSASDTYVFGGGTEVVVK | – | – | > 500 fold | –
94C4 mutant D97K (VL) (antibody, V domains shown) VH: QSLEESGGGLVQPEGSLTLTCKASGFDFSSNAMCWVRQAPGKGLEWIACISSASSGSSGSTYYASWAKGRFTISKTSSTTVTLQMTSLTAADMATYFCARDGYDLWGPGTLVTVSS VL: QVLTQTPSSVSAAVGGTVTISCQSSPSVYNNYLSWFQQKPGQSPKLLIYRVSTLASGVPSRFSGSGSGTQFTLTISGVQCDDAATYYCAGGYDSASKTYVFGGGTEVVVK | – | – | > 500 fold | –
94C4 mutant D101E (VH) (antibody, V domains shown) VH: QSLEESGGGLVQPEGSLTLTCKASGFDFSSNAMCWVRQAPGKGLEWIACISSASSGSSGSTYYASWAKGRFTISKTSSTTVTLQMTSLTAADMATYFCAREGYDLWGPGTLVTVSS VL: QVLTQTPSSVSAAVGGTVTISCQSSPSVYNNYLSWFQQKPGQSPKLLIYRVSTLASGVPSRFSGSGSGTQFTLTISGVQCDDAATYYCAGGYDSASDTYVFGGGTEVVVK | – | – | > 500 fold | –
94C4 mutant D101K (VH) (antibody, V domains shown) VH: QSLEESGGGLVQPEGSLTLTCKASGFDFSSNAMCWVRQAPGKGLEWIACISSASSGSSGSTYYASWAKGRFTISKTSSTTVTLQMTSLTAADMATYFCARKGYDLWGPGTLVTVSS VL: QVLTQTPSSVSAAVGGTVTISCQSSPSVYNNYLSWFQQKPGQSPKLLIYRVSTLASGVPSRFSGSGSGTQFTLTISGVQCDDAATYYCAGGYDSASDTYVFGGGTEVVVK | – | – | > 500 fold | –
94C4 mutant D101M (VH) (antibody, V domains shown) VH: QSLEESGGGLVQPEGSLTLTCKASGFDFSSNAMCWVRQAPGKGLEWIACISSASSGSSGSTYYASWAKGRFTISKTSSTTVTLQMTSLTAADMATYFCARMGYDLWGPGTLVTVSS VL: QVLTQTPSSVSAAVGGTVTISCQSSPSVYNNYLSWFQQKPGQSPKLLIYRVSTLASGVPSRFSGSGSGTQFTLTISGVQCDDAATYYCAGGYDSASDTYVFGGGTEVVVK | – | – | > 500 fold | –
94C4 mutant D101Q (VH) (antibody, V domains shown) VH: QSLEESGGGLVQPEGSLTLTCKASGFDFSSNAMCWVRQAPGKGLEWIACISSASSGSSGSTYYASWAKGRFTISKTSSTTVTLQMTSLTAADMATYFCARQGYDLWGPGTLVTVSS VL: QVLTQTPSSVSAAVGGTVTISCQSSPSVYNNYLSWFQQKPGQSPKLLIYRVSTLASGVPSRFSGSGSGTQFTLTISGVQCDDAATYYCAGGYDSASDTYVFGGGTEVVVK | – | – | > 500 fold | –
94C4 mutant D101S (VH) (antibody, V domains shown) VH: QSLEESGGGLVQPEGSLTLTCKASGFDFSSNAMCWVRQAPGKGLEWIACISSASSGSSGSTYYASWAKGRFTISKTSSTTVTLQMTSLTAADMATYFCARSGYDLWGPGTLVTVSS VL: QVLTQTPSSVSAAVGGTVTISCQSSPSVYNNYLSWFQQKPGQSPKLLIYRVSTLASGVPSRFSGSGSGTQFTLTISGVQCDDAATYYCAGGYDSASDTYVFGGGTEVVVK | – | – | > 500 fold | –
94C4 mutant S29D (VH) (antibody, V domains shown) VH: QSLEESGGGLVQPEGSLTLTCKASGFDFDSNAMCWVRQAPGKGLEWIACISSASSGSSGSTYYASWAKGRFTISKTSSTTVTLQMTSLTAADMATYFCARDGYDLWGPGTLVTVSS VL: QVLTQTPSSVSAAVGGTVTISCQSSPSVYNNYLSWFQQKPGQSPKLLIYRVSTLASGVPSRFSGSGSGTQFTLTISGVQCDDAATYYCAGGYDSASDTYVFGGGTEVVVK | – | – | > 500 fold | –
94C4 mutant S52K (VH) (antibody, V domains shown) VH: QSLEESGGGLVQPEGSLTLTCKASGFDFSSNAMCWVRQAPGKGLEWIACISKASSGSSGSTYYASWAKGRFTISKTSSTTVTLQMTSLTAADMATYFCARDGYDLWGPGTLVTVSS VL: QVLTQTPSSVSAAVGGTVTISCQSSPSVYNNYLSWFQQKPGQSPKLLIYRVSTLASGVPSRFSGSGSGTQFTLTISGVQCDDAATYYCAGGYDSASDTYVFGGGTEVVVK | – | – | > 500 fold | –

From patent publication EP4682166A1 (Guangzhou Enmai Biotechnology Co., Ltd, dated 2026)
